From article PMC6693180

Target: DTL (UniProt Q9NZJ0)
Experiment: co-IP with His tag antibody
Conditions: reference: His-PDCD4 wild type; sites S67

Substance: PDCD4 (from UniProt Q53EL6) His-PDCD4(S67A)
- binding against the reference: lost
